The source of these data is patent publication CN114395037A (SHENZHEN PEOPLE HOSPITAL, dated 2022).

In this assay the target is T1, CRT N+P结构域 (CALR N+P) (UniProt P27797 18-308).
T1 construct: range 18-308; The ELISA and SPR sections say only 'CRT蛋白' or '纯化抗原蛋白'; also called CRT蛋白; 钙网蛋白; not shown: His tag (Ni purification, anti-His WB)
T1 sequence (looked up): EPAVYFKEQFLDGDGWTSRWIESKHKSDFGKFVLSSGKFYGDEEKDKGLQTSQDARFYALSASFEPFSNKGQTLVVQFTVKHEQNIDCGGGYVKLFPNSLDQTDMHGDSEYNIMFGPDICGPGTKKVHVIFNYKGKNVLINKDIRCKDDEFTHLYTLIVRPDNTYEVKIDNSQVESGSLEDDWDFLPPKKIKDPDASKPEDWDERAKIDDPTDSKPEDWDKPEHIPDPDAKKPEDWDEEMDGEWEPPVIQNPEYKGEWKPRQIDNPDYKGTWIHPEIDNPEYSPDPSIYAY
Briefly: SPR (Biacore), antigen protein immobilised on the chip, nanobody as analyte. For orientation: In SPR one partner is held on a chip, and binding of the other changes the refractive index at the surface.

B1: 204纳米抗体 (VHH)
VHH: AVQLVESGGGLVQAGGSLRLSCVASGRPFSLYAVGWFRQAPGKAREFVAAISRSGSTTDHADSVKGRFTVSRDNDANTVSLLMSNLKPEDTAIYYCAAARSTRGYDYWGQGTQVTVSS
notes: Alpaca-derived nanobody from a naive phage display library, expressed in E. coli with an HA tag; not shown: fused HA tag (and a tag for Ni purification, vector PET-14B)
The Kd is the concentration at which binding is half-saturated. High values mean weaker binding, low ones tighter binding. With B1, binding was characterised by a dissociation constant (Kd) of 0.53 nM. This counts as sub-nanomolar.
